Laboratory results: publication PMC5159498, “IQGAP1 Interaction with RHO Family Proteins Revisited” (The Journal of Biological Chemistry, 2016)

Columns and labels:
Details in all cases: both partners purified
[1] = biological target: T1, IQGAP1 GRD1-CT (aa 863-1657) (human, UniProt P46940 863-1657); experiment: fluorescence polarisation; IQGAP1 variant titrated to mGppNHp-bound RHO protein (1 μM); equilibrium Kd (eKd), quadratic fit; 30 mM Tris/HCl pH 7.5, 150 mM NaCl, 5 mM MgCl2, 3 mM DTT, 25 °C
T1 construct: human IQGAP1, GRD, RGCT and CT domains, aa 863-1657; The GST tag was cleaved 'if needed'; also called C-terminal half of IQGAP1; C-terminal 795 amino acids of IQGAP1
T1 sequence (looked up): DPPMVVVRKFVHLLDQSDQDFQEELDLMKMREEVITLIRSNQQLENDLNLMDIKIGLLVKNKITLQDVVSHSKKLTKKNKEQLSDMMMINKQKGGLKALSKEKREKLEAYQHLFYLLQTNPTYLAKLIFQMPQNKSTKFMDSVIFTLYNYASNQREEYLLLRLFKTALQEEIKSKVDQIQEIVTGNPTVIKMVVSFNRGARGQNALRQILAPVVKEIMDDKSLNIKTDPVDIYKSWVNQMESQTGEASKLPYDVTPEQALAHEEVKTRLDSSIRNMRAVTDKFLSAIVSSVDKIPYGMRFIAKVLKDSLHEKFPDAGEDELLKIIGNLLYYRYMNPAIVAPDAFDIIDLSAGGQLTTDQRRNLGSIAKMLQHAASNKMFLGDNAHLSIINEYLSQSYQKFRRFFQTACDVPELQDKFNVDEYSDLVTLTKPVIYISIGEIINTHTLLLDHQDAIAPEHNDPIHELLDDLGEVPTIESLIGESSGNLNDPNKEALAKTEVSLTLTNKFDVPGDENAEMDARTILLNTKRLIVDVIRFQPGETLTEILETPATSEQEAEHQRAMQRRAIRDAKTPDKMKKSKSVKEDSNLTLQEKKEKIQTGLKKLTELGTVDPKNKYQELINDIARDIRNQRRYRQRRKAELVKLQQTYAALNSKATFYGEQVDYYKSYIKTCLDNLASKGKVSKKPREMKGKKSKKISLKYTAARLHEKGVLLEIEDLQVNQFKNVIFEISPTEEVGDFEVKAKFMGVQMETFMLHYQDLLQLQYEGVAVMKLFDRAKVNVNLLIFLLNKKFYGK

[2] = biological target: T2, IQGAP1 GRD1-RGCT wild type (aa 877-1558) (human, UniProt P46940 877-1558); experiment: as above
T2 construct: human IQGAP1, GRD and RGCT domains, lacks the last 99 amino acids, aa 877-1558; also called GRD1-RGCT^WT; IQGAP1^877-1558
T2 sequence (looked up): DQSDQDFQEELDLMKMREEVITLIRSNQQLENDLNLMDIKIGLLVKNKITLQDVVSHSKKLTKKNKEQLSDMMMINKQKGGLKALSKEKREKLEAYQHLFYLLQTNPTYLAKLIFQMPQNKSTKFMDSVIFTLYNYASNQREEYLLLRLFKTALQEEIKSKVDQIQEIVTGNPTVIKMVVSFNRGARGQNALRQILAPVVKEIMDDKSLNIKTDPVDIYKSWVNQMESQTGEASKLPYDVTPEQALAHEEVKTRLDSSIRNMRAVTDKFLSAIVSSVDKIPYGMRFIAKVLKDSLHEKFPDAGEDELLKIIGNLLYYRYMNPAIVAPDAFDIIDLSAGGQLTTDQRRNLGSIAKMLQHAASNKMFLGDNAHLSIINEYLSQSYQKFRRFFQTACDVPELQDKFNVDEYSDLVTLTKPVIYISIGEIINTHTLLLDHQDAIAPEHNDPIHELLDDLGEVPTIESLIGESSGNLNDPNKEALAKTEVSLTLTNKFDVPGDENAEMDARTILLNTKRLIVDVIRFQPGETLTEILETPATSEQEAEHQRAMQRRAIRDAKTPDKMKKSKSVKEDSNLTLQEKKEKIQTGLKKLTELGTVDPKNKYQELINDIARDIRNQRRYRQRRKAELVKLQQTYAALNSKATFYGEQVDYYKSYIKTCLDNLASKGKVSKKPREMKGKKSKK

[3] = biological target: T1, IQGAP1 GRD1-CT (aa 863-1657); experiment: fluorescence polarisation; IQGAP1 variant titrated to mGDP-bound (inactive) RHO protein (1 μM), same conditions as with mGppNHp; 30 mM Tris/HCl pH 7.5, 150 mM NaCl, 5 mM MgCl2, 3 mM DTT, 25 °C
[4] = biological target: T1, IQGAP1 GRD1-CT (aa 863-1657); experiment: stopped-flow fluorometry; tGppNHp (tamra-GppNHp)-bound CDC42 or CDC42 Q61L (0.2 μM) rapidly mixed with IQGAP1 variant (2-10 μM GRD1-CT for Q61L); Kd = koff/kon; 30 mM Tris-HCl pH 7.5, 10 mM KH2PO4/K2HPO4, 5 mM MgCl2, 3 mM DTT

Kd [1]: 3.4 µM | Kd [2]: 4.6 µM | Kd [3]: 95.1 µM | Kd [4]: 0.38 µM
B1: CDC42 (aa 1-178) (domain or fragment)
chain: not shown
notes: human CDC42, C-terminally truncated, aa 1-178; Loaded non-covalently with mGppNHp, tGppNHp, mGDP or non-fluorescent GppNHp; the nucleotide is named in the format of each assay; also called CDC42^WT; CDC42-mGppNHp
